According to IntAct's records for PubMed 22291198:

B1: Protein GLUTAMINE DUMPER 1 (Arabidopsis thaliana (Mouse-ear cress)), O81775 (parent)
chain: MRPLSVQSKFEDVATSTSVNHHGVTPQSPWHSPVPYLFGGLAAMLGLIAFALLILACSYWRLSSSGEEDGQNVDEEKESRSGDKAANGAYEEKFLVIMAGEDLPRYLATPAMKKCTCGGHEGKMVISQEESVAKEEEKMREGEEEKVKDTGETTTTSH
partner: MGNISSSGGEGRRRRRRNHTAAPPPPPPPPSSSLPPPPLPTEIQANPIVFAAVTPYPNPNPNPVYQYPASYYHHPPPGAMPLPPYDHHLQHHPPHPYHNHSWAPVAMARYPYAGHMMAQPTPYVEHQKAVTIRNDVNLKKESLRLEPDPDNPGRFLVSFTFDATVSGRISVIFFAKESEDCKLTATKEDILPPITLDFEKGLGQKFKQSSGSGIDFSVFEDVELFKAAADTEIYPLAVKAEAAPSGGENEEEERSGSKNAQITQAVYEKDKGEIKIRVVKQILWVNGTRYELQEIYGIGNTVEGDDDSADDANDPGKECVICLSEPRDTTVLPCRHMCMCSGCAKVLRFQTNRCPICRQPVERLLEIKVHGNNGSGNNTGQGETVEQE
B2: Probable E3 ubiquitin-protein ligase LOG2 (Arabidopsis thaliana (Mouse-ear cress)), Q9S752 (parent)
chain: B1 partner
partner: B1 chain
B3: Protein GLUTAMINE DUMPER 1 (Arabidopsis thaliana (Mouse-ear cress)), O81775 (parent)
chain: B1 chain
partner: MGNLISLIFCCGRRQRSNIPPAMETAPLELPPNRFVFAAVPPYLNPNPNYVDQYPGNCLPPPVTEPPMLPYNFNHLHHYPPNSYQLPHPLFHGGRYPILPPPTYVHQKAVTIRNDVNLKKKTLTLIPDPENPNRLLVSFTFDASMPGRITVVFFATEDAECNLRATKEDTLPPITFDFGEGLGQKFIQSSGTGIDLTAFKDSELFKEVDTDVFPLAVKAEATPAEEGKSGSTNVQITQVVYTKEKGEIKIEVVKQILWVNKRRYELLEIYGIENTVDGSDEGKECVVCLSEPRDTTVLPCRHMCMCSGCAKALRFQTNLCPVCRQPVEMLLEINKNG

Variants of: B1
Conditions: with lofg2_arath LOG2, Q9S752

| Variant | effect of a mutation on the interaction |
| --- | --- |
| G100R | disrupting interaction |

Variants of: B2
Conditions: with gdu1_arath GDU1, O81775

| Variant | effect of a mutation on the interaction |
| --- | --- |
| G2A;C354A;C357A | decreasing interaction |

Variants of: B3
Conditions: with lul1_arath LUL1, Q9LYW5

| Variant | effect of a mutation on the interaction |
| --- | --- |
| G100R | disrupting interaction |
